According to publication PMC11335211, “In vivo photocontrol of orexin receptors with a nanomolar light-regulated analogue of orexin-B” (Cellular and Molecular Life Sciences: CMLS, 2024):

Assays:
OX2 = settings: in words; cited from earlier work
Description: Among these, a family of neuroexcitatory peptides known as orexins (or hypocretins) is critically involved in regulating sleep and wakefulness, energy homeostasis, and reward. Orexin signaling is mediated by two closely related G protein-coupled receptors (GPCRs) – OX1 and OX2 (orexin) receptors – which are strongly conserved among mammals. While orexin cell bodies are concentrated in the hypothalamic area, orexin receptors are widely expressed in the central nervous system (CNS). Their endogenous ligands are two peptides, named ...

[1] = parameters: method as in 2 sources, one per row (each row's own in cited_ref): ref 75–77 = [75]; PMID 10087007; 75. Kastin AJ Akerstrom V Orexin A but not orexin B rapidly enters brain from blood by simple diffusion J Pharmacol Exp Ther 1999 289 219 223 10087007 || [76]; PMID 12626669; doi:10.1113/jphysiol.2002.038729; 76. John J Wu M-F Kodama T Siegel JM Intravenously administered hypocretin-1 alters brain amino acid release: an in vivo microdialysis study in rats J Physiol 2003 548 557 562 10.1113/jphysiol.2002.03 || [77]; PMID 14746374; doi:10.1093/sleep/26.8.953; 77. Fujiki N Yoshida Y Ripley B Mignot E Nishino S Effects of IV and ICV hypocretin-1 (orexin A) in hypocretin receptor-2 gene mutated narcoleptic dogs and IV hypocretin-1 replacement therapy in a hyp ||| ref 75 = [75]; PMID 10087007; 75. Kastin AJ Akerstrom V Orexin A but not orexin B rapidly enters brain from blood by simple diffusion J Pharmacol Exp Ther 1999 289 219 223 10087007; settings: cited from earlier work
human OX1 = target: T1, human OX1 (Homo sapiens, UniProt O43613); assay: FLIPR Tetra calcium mobilization assay, CHO-K1 cells; type: cell-based; settings: CHO-K1 cells stably expressing hOX1; 0.3 nM to 1 µM; two independent experiments in triplicates
T1 construct: expressed in transfected cells
T1 sequence (O43613 1-425): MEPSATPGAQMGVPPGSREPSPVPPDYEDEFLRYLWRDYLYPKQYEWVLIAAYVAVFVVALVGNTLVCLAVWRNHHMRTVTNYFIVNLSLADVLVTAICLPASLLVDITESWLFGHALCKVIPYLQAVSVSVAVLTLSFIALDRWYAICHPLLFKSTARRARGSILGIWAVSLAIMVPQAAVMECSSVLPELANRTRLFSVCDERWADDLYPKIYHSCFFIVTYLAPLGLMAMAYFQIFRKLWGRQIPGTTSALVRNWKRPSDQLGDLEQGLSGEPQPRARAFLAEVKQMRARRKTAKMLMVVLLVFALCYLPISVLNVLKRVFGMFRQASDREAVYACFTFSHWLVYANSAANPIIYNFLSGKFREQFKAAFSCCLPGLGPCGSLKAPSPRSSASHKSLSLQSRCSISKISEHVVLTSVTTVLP
Protocol: (§1) Samples of trans phOX were kept in the dark both prior to and during the whole duration of the experiment to avoid undesired photoconversion caused by environmental light. Unless differently stated, data for cis phOX were obtained by pre-illuminating the samples for 10 min with 365 nm UV light.
(§2) PFSK-1 cells were cultured in RPMI 1640 supplemented with 10% fetal bovine serum (FBS), 100 units/ml penicillin, and 100 µg/ml streptomycin. Chinese hamster ovary-K1 (CHO-K1) cells stably transfected to express human OX1 were cultured in Dulbecco’s Modified Eagle’s Medium/Nutrient Mixture F-12 Ham (DMEM/F12 1:1) medium supplemented with 10% FBS and 600 µg/ml G418. All cell lines were grown at 37 °C in 5% CO2.
(§3) Cells were plated at 50,000 cells/well in 96-well black-wall plates with poly-D-lysine-coated clear bottoms and grown overnight at 37 °C in 5% CO2. […] Calcium-mediated changes in fluorescence were monitored in a Fluorometric Imaging Plate Reader (FLIPR) Tetra instrument (Molecular Devices, USA). Fluorescence intensity was measured for 12 s to establish baseline fluorescence before addition of the test compound (20 µL/well) and further readings for a total of 155 s (excitation at 470–495 nm, detection at 515–575 nm). […]
(§4) Raw data from the FLIPR Tetra was exported as the difference between maximum and minimum fluorescence observed for each well. […] Agonist potencies (EC50) are expressed as means + SD.

hOX2 [2] = target: T2, hOX2 (Homo sapiens, UniProt O43614); assay: Radioligand competitive binding assay ([3H]EMPA); parameters: expressed in transfected cells; membranes; settings: control ligands; HEK-293-hOX2 membranes, [3H]EMPA 2 nM, 60 min rt, 10^-9 to 10^-6 M; two independent experiments in triplicates
T2 sequence (O43614 1-444): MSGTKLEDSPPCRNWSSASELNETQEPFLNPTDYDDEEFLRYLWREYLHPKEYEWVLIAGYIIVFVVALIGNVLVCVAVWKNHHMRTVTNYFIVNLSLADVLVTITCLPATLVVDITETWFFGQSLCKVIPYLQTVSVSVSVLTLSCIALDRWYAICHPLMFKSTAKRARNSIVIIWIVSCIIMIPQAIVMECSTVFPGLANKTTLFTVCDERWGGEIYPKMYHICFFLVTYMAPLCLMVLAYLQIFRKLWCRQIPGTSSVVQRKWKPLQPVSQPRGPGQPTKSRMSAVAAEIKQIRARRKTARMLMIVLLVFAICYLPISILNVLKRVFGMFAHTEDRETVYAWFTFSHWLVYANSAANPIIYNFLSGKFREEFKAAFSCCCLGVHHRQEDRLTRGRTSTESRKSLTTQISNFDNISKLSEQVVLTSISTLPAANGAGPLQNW
Description: The affinity towards OX2 was studied in a competitive radioligand binding assay on membranes derived from HEK-293 cells stably transfected with the human receptor. [^3H]EMPA, an OX2-selective orthosteric antagonist, was used as radioactive tracer to quantify residual binding after competitive displacement in the presence of the unlabeled ligands.^3 Wild-type OX-B and almorexant, a non-selective OX1 and OX2 antagonist, served as controls.^4
[^3H]EMPA (specific activity 27 Ci/mmol) and almorexant were synthesized at Janssen Research & Development LLC (San Diego, CA), while orexin-B was obtained from Bachem (Torrance, CA).
Cell membranes were prepared from a stable pool of HEK-293 cells transfected with the human OX2. Test compounds were dissolved in DMSO (10 mM stock solutions) and diluted in Dulbecco’s phosphate-buffered saline supplemented with 0.1% bovine serum albumin (BSA). Competition studies were performed by incubating the membranes with the OX2-selective antagonist [^3H]EMPA (2 nM) and different concentrations of the test compounds (7 concentrations ranging from 10^−9 to 10^−6 M). After a 60-minute incubation at rt, binding reactions were filtered to separate the excess of free ligand from the membranes. Filters were then counted for radioactivity in a scintillation counter. Nonspecific binding was determined in the presence of 10 µM almorexant.
Specific binding was determined and plotted as a function of the concentration of the compound using GraphPad Prism v8.3.1 (GraphPad Software, San Diego, USA). Data were analyzed by nonlinear regression using a one-site competition model.

hOX2 [3] = target: T2, hOX2; assay: FLIPR Tetra calcium mobilization assay, PFSK-1 cells; type: cell-based; settings: PFSK-1 cells innately expressing hOX2; 0.3 nM to 1 µM; two independent experiments in triplicates
Protocol: as §1, §2, §3, §4

OX1 receptor = settings: membrane-based binding assay; ref Langmead et al., 5 (SI); cited from earlier work
Description: Although the lack of binding with all three forms of OX-B - including the native ligand control - came unexpected, similar findings had already been observed for the OX1 receptor.

[4] = parameters: method as in PMID 10087007; settings: cited from earlier work

In the case of “OX-B: endogenous orexin peptide, native ligand control, obtained from Bachem”, the receptor selectivity (OX2) is listed as “selective for OX2”, the metabolism [1] is listed as “readily metabolized” and the “increase in calcium release (agonist activity)” value (human OX1) is listed as “increased calcium release in a concentration-dependent manner”. The “inhibition of [3H]EMPA binding” value (hOX2 [2]) was “did not compete to bind to the receptor”, the “increase in calcium release (agonist activity)” value (hOX2 [3]) was “increased calcium release in a concentration-dependent manner” and the “occupation of OX1 orthosteric site versus [3H]SB-674042” value (OX1 receptor) was “failed to occupy the receptor orthosteric site”. For the same substance, the “lipophilicity relative to OX-A” value [4] was “not as lipophilic”.
